The target of assay [1] is T1, Human FGFR4 ECD (human, UniProt P22455 22-369).
T1 construct: whole entry is the construct; also called FGFR4 D1-D3 construct
The assay can be described thus: SPR (Biacore), assay conditions similar to those for 12425.

Assay [2] concerns the target T1, Human FGFR4 ECD. The experiment in a line: SPR (Biacore), antibody captured, FGFR ECD as analyte. The protocol:
The immobilization level and analyte interactions were measured by response unit (RU).
Subsequently, 0.078-100 nM of FGFR receptors, diluted in a 2-fold series, were injected at a flow rate of 80 μl/min for 7 min over both reference and test flow cells. Dissociation of the binding was followed for 10 min using HBS-EP⁺ supplemented with 0.5 mg/ml of BSA and 10 μg/ml heparin as running buffer. After each injection cycle, the chip surface was regenerated with 10 mM glycine, pH 2.0 at 60 μl/min for 70 s.

Assay [3] has as its target T1, Human FGFR4 ECD. The assay can be described thus: SET or Biacore, IgG.
The target of another assay is T2, FGFR2 D2-D3 Construct (Human).
T2 construct: also called E. coli derived FGFR2 D2-D3 protein
T2 chain: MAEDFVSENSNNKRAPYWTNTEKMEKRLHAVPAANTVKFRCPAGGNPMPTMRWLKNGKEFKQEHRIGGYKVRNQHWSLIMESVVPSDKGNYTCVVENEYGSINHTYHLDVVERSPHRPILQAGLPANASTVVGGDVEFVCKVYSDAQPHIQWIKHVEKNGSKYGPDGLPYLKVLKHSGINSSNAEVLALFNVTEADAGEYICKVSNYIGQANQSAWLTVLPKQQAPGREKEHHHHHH
The experiment in a line: HDx-MS: deuterium uptake of FGFR2 D2-D3 peptides with mAb against control without mAb [A), D00032 FIG. 19 (B].

B1: mAb 20562 (antibody, human IgG1, kappa, V domains shown)
VH: EVQLLESGGGLVQPGGSLRLSCAASGFTFSDYAMSWVRQAPGKGLEWVSVIEGDASYTHYADSVRGRFTISRDNSKNTLYLQMNSLRAEDTAVYYCARERTYSSAFDYWGQGTLVTVSS
VL: DIQMTQSPSSLSASVGDRVTITCRASQDISSDLNWYQQKPGKAPKLLIYDASNLQSGVPSRFSGSGSGTDFTLTISSLQPEDFATYYCQQHYSPSHTFGQGTKVEIKR
B1 came in with a Kd with Human FGFR4 ECD [1] of 3.3 nM.

B2: mAb 12439 (antibody, human IgG1, kappa, V domains shown)
VH: QVQLVQSGAEVKKPGASVKVSCKASGYTFTSYDISWVRQAPGQGLEWMGWINPYNGGTNYAQKFQGRVTMTRDTSISTAYMELSRLRSEDTAVYYCAREGSGMIVYPGWSYAFDYWGQGTLVTVSS
VL: DIQMTQSPSSLSASVGDRVTITCRASQDISNDLGWYQQKPGKAPKLLIYAASSLQSGVPSRFSGSGSGTDFTLTISSLQPEDFATYYCQQHYHTPNTFGQGTKVEIKR
As for B2, in the assay with Human FGFR4 ECD [2], the Kd was determined as 4.3 nM.

B3: mAb 20811 (antibody, human IgG1, kappa, V domains shown)
VH: QVQLLESGGGLVQPGGSLRLSCAASGFTFSDYAMSWVRQAPGKGLEWVSTIEGDSNYIEYADSVKGRFTISRDNSKNTLYLQMNSLRAEDTAVYYCARERTYSSAFDYWGQGTLVTVSS
VL: DIQMTQSPSSLSASVGDRVTITCRASQDISSDLNWYQQKPGKAPKLLIYDASNLQSGVPSRFSGSGSGTDFTLTISSLQPEDFATYYCHQWYSTLYTFGQGTKVEIKR
B3 registered a Kd in the assay with Human FGFR4 ECD [3] of 0.075 nM. Also, the binding result with FGFR2 D2-D3 Construct is “binds”.

B4: mAb 12422 (antibody, human IgG1, kappa, V domains shown)
VH: QVQLVQSGAEVKKPGSSVKVSCKASGGTFSSYAISWVRQAPGQGLEWMGYISPYMGETHYAQKFQGRVTITADESTSTAYMELSSLRSEDTAVYYCARESYEYFDIWGQGTLVTVSS
VL: DIQMTQSPSSLSASVGDRVTITCRASQSISNDLAWYQQKPGKAPKLLIYATSILQSGVPSRFSGSGSGTDFTLTISSLQPEDFATYYCLQYYDYSYTFGQGTKVEIKR
B4 gave a Kd with Human FGFR4 ECD [2] of 0.95 nM.

(Values after US20140301946A1 (Novartis, published 2014).)
